Results on 4 molecules are retold here after patent US20140011978A1 (EPFL TTO, published 2014).

B1: TNC III1-5 (other)
chain: EVSPPKDLVVTEVTEETVNLAWDNEMRVTEYLVVYTPTHEGGLEMQFRVPGDQTSTIIQELEPGVEYFIRVFAILENKKSIPVSARVATYLPAPEGLKFKSIKETSVEVEWDPLDIAFETWEIIFRNMNKEDEGEITKSLRRPETSYRQTGLAPGQEYEISLHIVKNNTRGPGLKRVTTTRLDAPSQIEVKDVTDTTALITWFKPLAEIDGIELTYGIKDVPGDRTTIDLTEDENQYSIGNLKPDTEYEVSLISRRGDMSSNPAKETFTTGLDAPRNLRRVSQTDNSITLEWRNGKAAIDSYRIKYAPISGGDHAEVDVPKSQQATTKTTLTGLRPGTEYGIGVSAVKEDKESNPATINAATELDTPKDLQVSETAETSLTLLWKTPLAKFDRYRLNYSLPTGQWVGVQLPRNTTSYVLRGLEPGQEYNVLLTAEKGRHKSKPARVKASTEQAGGGSHHHHHH
notes: The secreted protein in the assays lacks the leader; also called TG-TNC III1-5; engineered TNC III1-5
B2: NT-3 (ligand, UniProt P20783 139-257, looked up)
chain: YAEHKSHRGEYSVCDSESLWVTDKSSAIDIRGHQVTVLGEIKTGNSPVKQYFYETRCKEARPVKNGCRGIDDKHWNSQCKTSQTYVRALTSENNKLVGWRWIRIDTSCVCALSRKIGRT
B3: Fg β1-66 (other)
fibrinogen Bβ chain fragment: QGVNDNEEGFFSARGHRPLDKKREEAPSLRPAPPPISGGGYRARPAKAAATQKKVERKAPDAGGCG
notes: production not given
B4: PDGF-BB (ligand, UniProt P01127 82-190, looked up)
chain: SLGSLTIAEPAMIAECKTRTEVFEISRRLIDRTNANFLVWPPCVEVQRCSGCCNNRNVQCRPTQVQLRPVQVRKIEIVRKKPIFKKATVTLEDHLACKCETVAAARPVT
notes: The name implies a homodimer of B chains

The target of assay [1] is T1, BSA (bovine, UniProt P02769).
T1 construct: negative control; also called bovine serum albumin
T1 sequence (P02769 25-607 limits assumed): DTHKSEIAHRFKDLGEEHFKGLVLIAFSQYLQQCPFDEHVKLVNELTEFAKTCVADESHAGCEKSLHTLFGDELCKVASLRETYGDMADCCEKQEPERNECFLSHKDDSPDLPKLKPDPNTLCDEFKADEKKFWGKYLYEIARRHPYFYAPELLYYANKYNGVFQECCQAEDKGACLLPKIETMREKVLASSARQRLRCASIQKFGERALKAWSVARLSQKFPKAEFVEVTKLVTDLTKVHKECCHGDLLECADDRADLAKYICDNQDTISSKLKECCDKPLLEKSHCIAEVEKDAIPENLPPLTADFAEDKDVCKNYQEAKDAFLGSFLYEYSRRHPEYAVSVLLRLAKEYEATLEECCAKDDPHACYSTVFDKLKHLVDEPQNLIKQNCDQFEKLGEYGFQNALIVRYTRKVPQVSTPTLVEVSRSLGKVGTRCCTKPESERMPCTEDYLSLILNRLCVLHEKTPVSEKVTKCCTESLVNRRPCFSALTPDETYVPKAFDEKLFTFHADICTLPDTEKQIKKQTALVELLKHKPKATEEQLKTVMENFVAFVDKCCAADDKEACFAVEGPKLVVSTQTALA
As to the kind of experiment: ELISA: PDGF-BB or BSA coated, TNC III1-5 in solution at 0 to 1.2 µM, A450. Here is the method:
ELISA plates were coated with cytokines or BSA and further incubated with TNC III1-5 to analyze binding of TNC III1-5 to a wide variety of cytokines. […] A large amount of heparin (4 μM) impaired binding of TNC III1-5 to these cytokines. Results are depicted in FIG. 3. Method: 50 nM of cytokine was coated for (1 hr, 37° C.). After blocking with 2% BSA (1 hr, RT). […] TNC III1-5 was detected with horseradish peroxidase (HRP)-anti-HIS in PBST (1 hr, RT) and developed with 3,3′,5,5′-tetramethylbenzidine (TMB), a soluble colorimetric HRP […]. Addition of sulfuric acid stop solution changes the color to yellow, enabling accurate measurement of the intensity at 450 nm using a spectrophotometer or plate reader. […] Heparin (4 μM) was added to TNC III1-5 to test the effect of blocking the heparin binding site of TNC III1-5, which has been defined as domain TNC III5 (Weber, Zimmermann, et al., 1995).
(In general: In an ELISA, binding on a coated surface is turned into a signal by an enzyme label.)

The target in a further assay is FGF-9. As to the kind of experiment: ELISA: cytokine coated (50 nM), 100 nM TNC III1-5 in solution, HRP-anti-His, A450. Here is the method: (§1) ELISA plates were coated with cytokines or BSA and further incubated with TNC III1-5 to analyze binding of TNC III1-5 to a wide variety of cytokines. […] A large amount of heparin (4 μM) impaired binding of TNC III1-5 to these cytokines. Results are depicted in FIG. 3. Method: 50 nM of cytokine was coated for (1 hr, 37° C.). After blocking with 2% BSA (1 hr, RT). 100 nM TNC III1-5 was applied in PBST (0.05% tween, 0.1% bovine serum albumin (BSA)) (1 hr, RT). TNC III1-5 was detected with horseradish peroxidase (HRP)-anti-HIS in PBST (1 hr, RT) and developed with 3,3′,5,5′-tetramethylbenzidine (TMB), a soluble colorimetric HRP […]. Addition of sulfuric acid stop solution changes the color to yellow, enabling accurate measurement of the intensity at 450 nm using a spectrophotometer or plate reader. […] Heparin (4 μM) was added to TNC III1-5 to test the effect of blocking the heparin binding site of TNC III1-5, which has been defined as domain TNC III5 (Weber, Zimmermann, et al., 1995).

A further assay has as its target HGF (UniProt P14210 32-728). As to the kind of experiment: ELISA: cytokine coated (50 nM), 100 nM TNC III1-5 in solution, HRP-anti-His, A450; black bars without, white bars with 4 µM heparin. The protocol: as §1
Assay [2] addresses B1. Description: SPR: TNC III1-5 on the chip, BSA in the reference channel, cytokine injected at rising concentrations; Langmuir fit (legend paragraph 11 says TNC III5, Example 5 paragraph 115 says TNC III1-5). The protocol: (§2) Surface plasmon resonance (SPR) was done to quantify the affinity of specific cytokines to TNC III1-5. […] Method: Surface plasmon resonance chips were functionalized with TNC III1-5 or BSA and cytokines were injected over the chips at different concentrations. The chips contained gold with free carboxyl groups that were activated to bind TNC III1-5 in one channel and BSA as a reference protein in another channel. The specific response of a cytokine to TNC III1-5 (in RU) was obtained relative to the response to BSA. Results are depicted in FIG. 5.
In general terms: In SPR one partner is held on a chip, and binding of the other changes the refractive index at the surface.

Assay [3] deals with B1. As to the kind of experiment: SPR, TNC III1-5 on the chip, cytokine injected, BSA reference channel. Here is the method:
as §2

In the next assay the target is T2, TGF-β3 (Natural form is a disulfide-linked homodimer; one protomer is given.).
T2 chain: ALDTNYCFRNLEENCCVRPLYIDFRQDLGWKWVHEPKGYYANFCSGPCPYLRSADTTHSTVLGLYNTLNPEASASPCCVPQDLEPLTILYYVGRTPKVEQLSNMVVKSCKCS
Description: ELISA: growth factor coated, Fg fragment in solution, A450 (methods analogous to Example 3). Here is the method:
as §1
(§3) ELISA plates were coated with cytokines or BSA and further incubated with Fg β15-66 to analyze binding of […] to a wide variety of cytokines. […] Results are depicted in FIG. 4. Method: The methods were analogous to those used in Example 3.

For the next assay, the target named is EGF. The assay is described as above. The protocol:
as §1, §3

A further assay concerns the target T3, PlGF-1 (UniProt P49763-2 19-149).
T3 sequence (looked up): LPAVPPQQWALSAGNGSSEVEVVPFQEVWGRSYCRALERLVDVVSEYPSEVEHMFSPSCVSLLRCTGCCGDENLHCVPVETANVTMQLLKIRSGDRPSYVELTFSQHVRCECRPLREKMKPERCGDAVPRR
The description is as above. The protocol:
as §1, §3

Another assay deals with T4, FGF-6 (UniProt P10767 38-208, limits assumed).
T4 sequence (looked up): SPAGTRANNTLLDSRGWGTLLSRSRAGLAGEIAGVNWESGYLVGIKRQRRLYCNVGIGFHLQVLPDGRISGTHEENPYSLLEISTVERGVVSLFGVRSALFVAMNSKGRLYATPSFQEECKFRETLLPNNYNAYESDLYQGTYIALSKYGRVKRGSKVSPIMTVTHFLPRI
The description is as above. Here is the method: as §1, §3

For assay [4], the target named is T1, BSA. Description: ELISA: BSA coated as control, Fg fragment in solution, A450 (methods analogous to Example 3). Here is the method:
as §1, §3

The target in assay [5] is T1, BSA. Description: ELISA: GST-fused TNC domains, GST and BSA coated, 2 nM PDGF-BB in solution, anti-PDGF-BB antibody and HRP secondary, A450. Here is the method: An ELISA was performed to test the affinity of different domains present in TNC1-5 to PDGF-BB as an example cytokine that has shown to bind TNC III1-5. Domain TNC III5 was defined to be responsible for cytokine binding. Method: ELISA plates were coated with individual TNC domains fused to GST, as well as GST and BSA. Wells were blocked with BSA and then incubated with 2 nM PDGF-BB. Binding of PDGF-BB was detected using an anti-PDGF-BB antibody and then a secondary horseradish peroxidase conjugated antibody.

Chain of HGF (P14210 32-728 limits assumed): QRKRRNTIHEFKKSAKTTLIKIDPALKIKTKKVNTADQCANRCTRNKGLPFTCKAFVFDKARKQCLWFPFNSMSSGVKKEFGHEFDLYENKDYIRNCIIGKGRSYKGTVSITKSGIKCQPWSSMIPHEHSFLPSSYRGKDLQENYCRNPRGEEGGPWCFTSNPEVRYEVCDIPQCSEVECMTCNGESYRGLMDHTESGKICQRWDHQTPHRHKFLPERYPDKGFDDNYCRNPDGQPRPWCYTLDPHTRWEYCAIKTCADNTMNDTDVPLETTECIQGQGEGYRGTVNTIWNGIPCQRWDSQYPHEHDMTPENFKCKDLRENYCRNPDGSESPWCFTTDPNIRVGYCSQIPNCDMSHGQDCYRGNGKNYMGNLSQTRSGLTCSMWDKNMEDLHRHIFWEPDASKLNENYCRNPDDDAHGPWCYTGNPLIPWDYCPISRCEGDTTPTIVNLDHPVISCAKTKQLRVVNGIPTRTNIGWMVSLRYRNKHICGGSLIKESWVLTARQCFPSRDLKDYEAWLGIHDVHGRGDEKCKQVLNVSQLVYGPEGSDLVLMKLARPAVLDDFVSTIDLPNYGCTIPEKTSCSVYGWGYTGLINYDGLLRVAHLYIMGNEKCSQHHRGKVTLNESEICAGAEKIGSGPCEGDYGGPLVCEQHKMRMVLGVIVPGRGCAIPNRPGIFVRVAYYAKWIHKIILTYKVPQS

Regarding B1, the binding result with BSA [1] is reported as “no binding (tested: 1.2 µM)”; in the assay with FGF-9, “no binding (tested: 100 nM)”; with HGF, “binds”.

In the case of B2, in the assay with TNC III1-5 [2], the koff turned out to be 0.00106 s⁻¹ and the kon was 50700 M⁻¹ s⁻¹. Also, binding in the assay with TNC III1-5 [3] was put at a Kd of 21 nM.

For the molecule B3, the binding result with TGF-β3, with EGF, in the assay with PlGF-1, with FGF-6 and with BSA [4] was “no binding” in each case.

Turning to B4, in the assay with TNC III1-5 [2], the koff stood at 0.0202 s⁻¹ and the kon is 5.23e+06 M⁻¹ s⁻¹. Besides, in the assay with TNC III1-5 [3], the Kd was 3.9 nM. In the assay with BSA [5], the binding result is recorded as “no binding (tested: 2 nM PDGF-BB)”.

One may read the koff as the rate constant with which the complex falls apart. A word on the kon: it is the second-order rate constant of association. Low values mean slower complex formation, high ones faster complex formation. The term Kd denotes the equilibrium constant for the complex coming apart. Lower therefore signals tighter binding.
